# Source: article PMC9234707 (2022)
# B1: GDF11 (protein)
# chain 1: GLDCDEHSSESRCCRYPLTVDFEAFGWDWIIAPKRYKANYCSGQCEYMFMQKYPHTHLVQQANPRGSAGPCCTPTKMSPINMLYFNDKQQIIYGKIPGMVVDRCGCS
# chain 2: GLDCDEHSSESRCCRYPLTVDFEAFGWDWIIAPKRYKANYCSGQCEYMFMQKYPHTHLVQQANPRGSAGPCCTPTKMSPINMLYFNDKQQIIYGKIPGMVVDRCGCS
# B2: ActivinB (protein)
# chain 1: GLECDGRTNLCCRQQFFIDFRLIGWNDWIIAPTGYYGNYCEGSCPAYLAGVPGSASSFHTAVVNQYRMRGLNPGTVNSCCIPTKLSTMSMLYFDDEYNIVKRDVPNMIVEECGCA
# chain 2: GLECDGRTNLCCRQQFFIDFRLIGWNDWIIAPTGYYGNYCEGSCPAYLAGVPGSASSFHTAVVNQYRMRGLNPGTVNSCCIPTKLSTMSMLYFDDEYNIVKRDVPNMIVEECGCA
# B3: BMP15 (protein)
# chain 1: PENNQCSLHPFQISFRQLGWDHWIIAPPFYTPNYCKGTCLRVLRDGLNSPNHAIIQNLINQLVDQSVPRPSCVPYKYVPISVLMIEANGSILYKEYEGMIAESCTCR
# chain 2: PENNQCSLHPFQISFRQLGWDHWIIAPPFYTPNYCKGTCLRVLRDGLNSPNHAIIQNLINQLVDQSVPRPSCVPYKYVPISVLMIEANGSILYKEYEGMIAESCTCR
# B4: Nodal (protein)
# chain 1: DRSQLCRKVKFQVDFNLIGWGSWIIYPKQYNAYRCEGECPNPVGEEFHPTNHAYIQSLLKRYQPHRVPSTCCAPVKTKPLSMLYVDNGRVLLDHHKDMIVEECGCL
# chain 2: DRSQLCRKVKFQVDFNLIGWGSWIIYPKQYNAYRCEGECPNPVGEEFHPTNHAYIQSLLKRYQPHRVPSTCCAPVKTKPLSMLYVDNGRVLLDHHKDMIVEECGCL
# B5: BMP10 (protein)
# chain 1: AKGNYCKRTPLYIDFKEIGWDSWIIAPPGYEAYECRGVCNYPLAEHLTPTKHAIIQALVHLKNSQKASKACCVPTKLEPISILYLDKGVVTYKFKYEGMAVSECGCR
# chain 2: AKGNYCKRTPLYIDFKEIGWDSWIIAPPGYEAYECRGVCNYPLAEHLTPTKHAIIQALVHLKNSQKASKACCVPTKLEPISILYLDKGVVTYKFKYEGMAVSECGCR
# Target: ACVR2A (Homo sapiens (Human), UniProt P27037)
# Sequence (P27037 26-118): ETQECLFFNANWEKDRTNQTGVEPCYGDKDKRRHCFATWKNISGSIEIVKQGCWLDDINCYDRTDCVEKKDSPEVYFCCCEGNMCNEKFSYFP
# Test: SPR, receptor-Fc dimer captured (avidity), single 80 nM injections
row,Binder,Kd
1,B1,0.052 nM
2,B2,0.053 nM
3,B3,> 80 nM
4,B4,> 80 nM
5,B5,1 nM
